± gives the uncertainty stated by the source.
Test: protein stability index of a GFP-peptide fusion (yeast GPS) (PSI 1-4); higher = more stable; sorted into four equal gates, so the index is relative within each strain
In short: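 Tiled yeast protein peptides of 17 residues were each joined downstream of GFP, on plasmids that also express Cherry. The pooled library was maintained in yeast, and mid-log cultures in leucine-free medium were sorted into four equal gates on the GFP/Cherry ratio. Plasmids from every gate were amplified by PCR and sequenced on Illumina, with barcodes linking reads to strains. The protein stability index of a peptide is its gate-number-weighted read frequency summed over the gates.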

Sequence	protein stability index (doa10∆)	protein stability index (pdr5∆)	protein stability index (san1∆)	protein stability index (ubr1∆)
EERERKDQYVPEVSALD [RPS17A]	2.91 ± 0.082	3.13 ± 0.057	3.17 ± 0.042	2.82 ± 0.049
EIRRSLSLNLGDYGSAK [POP5]		3.06 ± 0.09	3.05 ± 0.18	
SEEEEDEEENGSSDEDL [SSN2]	3.48 ± 0.26	3.74 ± 0.24	3.63 ± 0.12	3.32 ± 0.17
FLLKAYINVSRGTDIDR [SRB5]				3.08 ± 0.22
TEIISTLSNGLIASHYG [BRR2]	2.55 ± 0.076	2.79 ± 0.096	2.42 ± 0.1	2.33 ± 0.062
AKGFYHTPMVNFESISA [SRB8]	2.16 ± 0.06	1.84 ± 0.05	1.52 ± 0.11	1.93 ± 0.05
QLPVGFKNMGNTCYLNA [UBP6]	2.16 ± 0.073	1.76 ± 0.079	1.48 ± 0.12	1.6 ± 0.084
TAEERVGRRAANLRVLN [RPL15A]	2.83 ± 0.12	3.28 ± 0.14	2.75 ± 0.14	2.92 ± 0.11
EPGHAADQEQAKLIRSA [RPO21]	3.2 ± 0.2	3.24 ± 0.2	2.69 ± 0.19	3.12 ± 0.1
RRSKQLINLAKTRVGSV [RPC82]	3.25 ± 0.053	2.91 ± 0.062	2.95 ± 0.049	3.25 ± 0.044
ELNYFVGCKNLERLTLV [GRR1]	2.92 ± 0.11	2.83 ± 0.093	2.19 ± 0.094	3.05 ± 0.081
DLASSKEVLAKIVDLLA [RPN5]	2.85 ± 0.21	3.43 ± 0.24	2.98 ± 0.091	2.97 ± 0.11
DSLTQNNNNAPIIIYGT [YOR098C/NUP1]	2.69 ± 0.047	2.93 ± 0.041	2.8 ± 0.041	2.92 ± 0.038
LKFMAASEVATHSKLFA [PRP8]	2.91 ± 0.085	3.07 ± 0.082	2.78 ± 0.062	2.7 ± 0.073
SLDEILLPANLLSLNSV [SRP68]	3.13 ± 0.058	3.15 ± 0.058	3.14 ± 0.05	3.08 ± 0.031
IVPLHSPFLMGHPMTKS [SEC65]	2.76 ± 0.083	2.57 ± 0.07	2.57 ± 0.079	2.79 ± 0.055
ELVFSKGVYLILSEILC [YML103C/NUP188]	1.93 ± 0.049	1.54 ± 0.048	1.71 ± 0.07	1.51 ± 0.026
LNVYHYFGENSSISWKN [YJL039C/NUP192]	1.79 ± 0.08	2.76 ± 0.082	2.65 ± 0.083	3.03 ± 0.1
GRSHTRNSTRSSGFNED [REC8]		3.55 ± 0.23		
FLYEILSSLKSFAIYSS [SRB8]	1.24 ± 0.053	1.16 ± 0.038	1.34 ± 0.099	1.14 ± 0.047
GKVVGDKWESYLNLLQE [RPB10]	3.24 ± 0.076	2.65 ± 0.086	2.49 ± 0.11	3.26 ± 0.055
DWEDEEKYEDEDEEKIL [DSN1]	3.28 ± 0.11	2.94 ± 0.16	3.26 ± 0.24	3.25 ± 0.15
ANTNSVTSMEAAREKKI [YIL149C/MLP2]	3 ± 0.077	3.05 ± 0.078	3 ± 0.049	3.01 ± 0.047
NNAKLLTFMTCNSLHIP [ESC2]	1.71 ± 0.046	1.72 ± 0.052	1.6 ± 0.079	2.06 ± 0.047
KELEPWDLQLQEKESQI [SMC4]	3.16 ± 0.12	3.22 ± 0.13	3.21 ± 0.12	3.36 ± 0.12

Sequence	protein stability index (doa10∆)	protein stability index (pdr5∆)	protein stability index (san1∆)	protein stability index (ubr1∆)
LIELLEKLDVSRSSVCV [YCG1]	2.44 ± 0.072	2.32 ± 0.058	2.05 ± 0.08	1.88 ± 0.065
APMDFAIVVGWRAIIKA [FAS1]	2.51 ± 0.086	2.66 ± 0.08	2.57 ± 0.082	2.14 ± 0.062
GSSKPAFSFGAKPDEKK [YJL041W/NSP1]	3.19 ± 0.17	3.18 ± 0.14		3.29 ± 0.17
LDYQIGNSESKVEKGVN [LIN1]	3.12 ± 0.12	3.4 ± 0.18	2.92 ± 0.15	3.38 ± 0.13
QRKKQSDVLRFLQRVRV [RPL15A]	1.38 ± 0.16	2.26 ± 0.21	1.78 ± 0.26	1.56 ± 0.099
KDSVTECSKDMKEDGLS [SIR4]	3.21 ± 0.12	3.45 ± 0.066	3.23 ± 0.07	3.32 ± 0.049
MFLEFQSTQTDLEKTER [SMC2]	3.31 ± 0.1	2.8 ± 0.14	2.86 ± 0.25	2.64 ± 0.15
FHTSFSAVVGPNGSGKS [SMC4]	3.09 ± 0.089	3.18 ± 0.084	3.35 ± 0.085	3.37 ± 0.12
PPLLVYKWTQGINNLSE [PRP8]	3.09 ± 0.12	3.11 ± 0.073	3.29 ± 0.076	3.25 ± 0.098
TRLPAFERPAVKEEKED [RPC53]	2.87 ± 0.25	2.71 ± 0.23	3.21 ± 0.085	3.46 ± 0.16
LYDSLASTPSIRPDGRL [RRP42]	2.64 ± 0.14	2.81 ± 0.096	2.4 ± 0.18	2.99 ± 0.088
GSRKVAGILRGYDIFLN [SMX2]	2.5 ± 0.11	1.67 ± 0.08	1.83 ± 0.15	1.98 ± 0.099
GKIPTLKISLIQIFRAH [PRP8]	1.72 ± 0.045	1.44 ± 0.044	1.33 ± 0.073	1.29 ± 0.041
LSTSAFMEIVLEYNVAL [YML031W/NDC1]	1.98 ± 0.037	1.71 ± 0.052	1.78 ± 0.08	2.12 ± 0.067
TVQYVRFFWKRSTNKKS [UBP6]	1.65 ± 0.054	1.35 ± 0.047	1.2 ± 0.15	1.12 ± 0.04
VYNLALKCAERQLTSME [NUT1]	2.38 ± 0.073	2.2 ± 0.052	2.09 ± 0.07	2.31 ± 0.029
EQELAHILLTELLAYQF [FAS2]	2.547 ± 0.023	2.807 ± 0.025	2.67 ± 0.023	2.633 ± 0.019
INSSNEALVQAFAFCIP [YCG1]	2.18 ± 0.055	2.31 ± 0.051	2.49 ± 0.059	2.09 ± 0.041
MTLNRKCVVIHNGSHRT [ARP7]	2.59 ± 0.051	2.74 ± 0.062	2.54 ± 0.059	2.66 ± 0.045
QDDEYVKDWLYDSRPLE [PRP8]	3.25 ± 0.16	3.43 ± 0.11	3.18 ± 0.13	3.02 ± 0.068
FKAMEDVIAWKNVLANS [ITC1]		2.95 ± 0.16	3.55 ± 0.078	3.49 ± 0.16
NADLDVKDELMFSPLVD [RPO21]	3.17 ± 0.047	3.08 ± 0.04	3.15 ± 0.041	3.31 ± 0.034
LLRSVLVLLELVSSGDR [YML103C/NUP188]	1.84 ± 0.23	2.03 ± 0.12		2.28 ± 0.15
LNAELESKLIPQENDLE [SMC3]	3.12 ± 0.1	3.16 ± 0.076	3.23 ± 0.075	3.15 ± 0.057
ASVYPEYALPKTYNKLH [RPS26A]	2.92 ± 0.076	2.51 ± 0.053	2.79 ± 0.059	2.71 ± 0.031

Reference: the supplement of paper PMC9732359
